# Measurements taken from PMC8324831, “A synthetic nanobody targeting RBD protects hamsters from SARS-CoV-2 infection” (Nature Communications, 2021).
# Substitutions are numbered along the chain they refer to.
# B1: SR62 (VHH)
# VHH: QVQLVESGGGLVQAGGSLRLSCAASGFPVFQENMHWYRQAPGKEREWVAAIYSQGSYTLYADSVKGRFTISRDNAKNTVYLQMNSLKPEDTAVYYCEVNVGQWYYGQGTQVTVS
# B2: LR10 (VHH)
# VHH: QVQLVESGGGSVQAGGSLRLSCAASGTISSITYLGWFRQAPGKEREGVAALTTNNGHTYYADSVKGRFTVSLDNAKNTVYLQMNSLKPEDTALYYCAAADWGYDWPLDRYHYWYWGQGTQVTVS
# B3: LR15 (VHH)
# VHH: B2 VHH with T27S, T52K, N54A, N55S, H57Q, D104N, D108I, Y110E, H111E, W113E
# B4: LR14 (VHH)
# VHH: B2 VHH with T27S, S29P, S30G, T52V, N55S, D104Q, R109K, Y110A, H111E
# B5: LR18 (VHH)
# VHH: B2 VHH with T27S, T52V, N54E, D100T, D104E, D108Y, R109S, Y110N, H111D, W113F
# B6: MR18 (VHH)
# VHH: QVQLVESGGGLVQAGGSLRLSCAASGFPVWEHHMAWYRQAPGKEREWVAAITSKGRYTTYADSVKGRFTISRDNAKNTVYLQMNSLKPEDTAVYYCHVKDAGYFDAQYDYWGQGTQVTVS
# B7: LR3 (VHH)
# VHH: QVQLVESGGGSVQAGGSLRLSCAASGTINNITYLGWFRQAPGKEREGVAALITTSGYTYYADSVKGRFTVSLDNAKNTVYLQMNSLKPEDTALYYCAAASWGYEWPLVYDDYWYWGQGTQVTVS
# B8: LR6 (VHH)
# VHH: B7 VHH with T27S, N29S, N30S, I52V, Y57N, S100T, E104S, V108E, Y109H, D111E
# B9: LR9 (VHH)
# VHH: B7 VHH with T27S, N29S, N30S, T54A, S55R, Y57R, S100N, E104N, V108A, D110S
# B10: LR11 (VHH)
# VHH: QVQLVESGGGSVQAGGSLRLSCAASGSISSITYLGWFRQAPGKEREGVAALVTHSGSTYYADSVKGRFTVSLDNAKNTVYLQMNSLKPEDTALYYCAAAYWGWDWPLNSQDYWYWGQGTQVTVS
# B11: LR13 (VHH)
# VHH: B10 VHH with V52I, S55A, S57R, Y100D, D104Y, N108V, S109I, Q110D, D111H, W113E
# B12: LR16 (VHH)
# VHH: B10 VHH with V52Y, H54T, S55H, S57Y, Y100D, W103Y, D104N, W105I, S109I, Q110T
# B13: MR13 (VHH)
# VHH: QVQLVESGGGLVQAGGSLRLSCAASGFPVKNMNMHWYRQAPGKEREWVAAIYSYGVETHYADSVKGRFTISRDNAKNTVYLQMNSLKPEDTAVYYCNVKDWGSYMNWYDYWGQGTQVTVS
# B14: LR2 (VHH)
# VHH: QVQLVESGGGSVQAGGSLRLSCAASGDINAIGYLGWFRQAPGKEREGVAALDTDEGQTYYADSVKGRFTVSLDNAKNTVYLQMNSLKPEDTALYYCAAAMNGYNEPLYSYDYEYWGQGTQVTVS
# B15: MR19 (VHH)
# VHH: QVQLVESGGGLVQAGGSLRLSCAASGFPVRNTEHMYWYRQAPGKEREWVAAIFSMGRFTKYADSVKGRFTISRDNAKNTVYLQMNSLKPEDTAVYYCNVKDTGSFSEGYDYWGQGTQVTVS
# B16: MR7 (VHH)
# VHH: QVQLVESGGGLVQAGGSLRLSCAASGFPVNSWMEWYRQAPGKEREWVAAITSYGYKTYYADSVKGRFTISRDNAKNTVYLQMNSLKPEDTAVYYCNVKDEGYFSDEYDYWGQGTQVTVS
# B17: MR15 (VHH)
# VHH: B16 VHH with N30D, S31T, E100F, F103A, D105T, E106Y
# B18: LR8 (VHH)
# VHH: QVQLVESGGGSVQAGGSLRLSCAASGTIAYIKYLGWFRQAPGKEREGVAALMTRWGETYYADSVKGRFTVSLDNAKNTVYLQMNSLKPEDTALYYCAAANYGANFPLQANTYFYWGQGTQVTVS
# B19: LR12 (VHH)
# VHH: B18 VHH with T27S, Y30S, N100E, Y101C, F105S, Q108H, N110K, T111D, F113S
# B20: LR17 (VHH)
# VHH: B18 VHH with T27S, Y30H, W55H, E57Q, N100Y, Q108F, A109Q, N110T, T111G, F113T
# B21: MR2 (VHH)
# VHH: QVQLVESGGGLVQAGGSLRLSCAASGFPVYFSYMAWYRQAPGKEREWVAAINSEGDSTTYADSVKGRFTISRDNAKNTVYLQMNSLKPEDTAVYYCNVKDYGWYNSQYDYWGQGTQVTVS
# B22: MR5 (VHH)
# VHH: QVQLVESGGGLVQAGGSLRLSCAASGFPVDAWEMAWYRQAPGKEREWVAAIRSFGRRTHYADSVKGRFTISRDNAKNTVYLQMNSLKPEDTAVYYCNVKDFGTHTQEYDYWGQGTQVTVS
# B23: MR6 (VHH)
# VHH: QVQLVESGGGLVQAGGSLRLSCAASGFPVEDTWMEWYRQAPGKEREWVAAITSWGFKTYYADSVKGRFTISRDNAKNTVYLQMNSLKPEDTAVYYCNVKDEGDTSASYDYWGQGTQVTVS
# B24: MR9 (VHH)
# VHH: B23 VHH with E30A, D31S, W54Y, F56Y, K57H, D103Y, T104F, A106T, S107N
# B25: MR16 (VHH)
# VHH: B23 VHH with D31R, W54Y, F56Y, K57R, D103S, T104A, A106S, S107A
# B26: MR10 (VHH)
# VHH: B23 VHH with E30A, D31N, W54Y, F56Y, K57R, D103A, S105T, A106K, S107V
# B27: MR8 (VHH)
# VHH: QVQLVESGGGLVQAGGSLRLSCAASGFPVEWAHMHWYRQAPGKEREWVAAIVSAGHYTVYADSVKGRFTISRDNAKNTVYLQMNSLKPEDTAVYYCNVKDWGSSNQYYDYWGQGTQVTVS
# B28: MR12 (VHH)
# VHH: B27 VHH with A32S, A54T, H56E, V59K, G102Y, S103G, S104Q, N105A, Q106K, Y107S
# B29: MR14 (VHH)
# VHH: B27 VHH with E30M, W31Y, A32T, A54L, H56E, V59T, S103A, S104A, Q106K
# B30: LR4 (VHH)
# VHH: QVQLVESGGGSVQAGGSLRLSCAASGFIHSIYYLGWFRQAPGKEREGVAALNTQHGTTYYADSVKGRFTVSLDNAKNTVYLQMNSLKPEDTALYYCAAARWGRNYPLNYWQYSYWGQGTQVTVS
# B31: MR1 (VHH)
# VHH: QVQLVESGGGLVQVGGSLRLSCAASGFPVYHSIMHWYRQAPGKEREWVAAIYSSGAHTYYADSVKGRFTISRDNAKNTVYLQMNSLKPEDTAVYYCNVKDGGNWDHTYDYWGQGTQVTVS
# B32: SR60 (VHH)
# VHH: QVQLVESGGGLVQAGGSLRLSCAASGFPVEHAQMAWYRQAPGKEREWVAAIQSYGSTTYYADSVKGRFTISRDNAKNTVYLQMNSLKPEDTAVYYCAVHVGFWYAGQGTQVTVS
# B33: SR61 (VHH)
# VHH: B32 VHH with E30D, H31I, Q33E, Q52G, Y54Q, S56M, Y59H
# B34: LR7 (VHH)
# VHH: QVQLVESGGGSVQAGGSLRLSCAASGSISSITYLGWFRQAPGKEREGVAALITNWGHTYYADSVKGRFTVSLDNAKNTVYLQMNSLKPEDTALYYCAAAFHGEQYPLYTNKYHYWGQGTQVTVS
# B35: MR11 (VHH)
# VHH: QVQLVESGGGLVQAGGSLRLSCAASGFPVEWTSMVWYRQAPGKEREWVAAIYSAGHHTKYADSVKGRFTISRDNAKNTVYLQMNSLKPEDTAVYYCNVKDYGHDRSNYDYWGQGTQVTVS
# Biological target: SARS-CoV-2 S-RBD with Avi-tag and deca-His tag (residues 330-531) (SARS-CoV-2, UniProt P0DTC2, biotin on the Avi tag (BirA) where immobilised on streptavidin sensors or used in ELISA and FSEC)
row,Binder,binding result
1,B1,binds
2,B2,binds
3,B3,binds
4,B4,binds
5,B5,binds
6,B6,binds
7,B7,binds
8,B8,binds
9,B9,binds
10,B10,binds
11,B11,binds
12,B12,binds
13,B13,binds
14,B14,binds
15,B15,binds
16,B16,binds
17,B17,binds
18,B18,binds

row,Binder,binding result
1,B19,binds
2,B20,binds
3,B21,binds
4,B22,binds
5,B23,binds
6,B24,binds
7,B25,binds
8,B26,binds
9,B27,binds
10,B28,binds
11,B29,binds
12,B30,binds
13,B31,binds
14,B32,binds
15,B33,binds
16,B34,binds
17,B35,binds
